Experimental data as given in US20110150888A1 (Amgen, published 2011).
Substitutions are numbered along the chain they refer to. Numbers in names are those of the source.

T1: human hepcidin (mature, 25 amino acids) (human, mono-biotinylated in the ELISAs and on the KinExA beads (site not stated); unlabelled in solution and on the BIAcore chip)
T1 construct: the form is named in each assay field; also called rhuHepc; rhHepc
T1 peptide: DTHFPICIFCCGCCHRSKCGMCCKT

B1: antibody 15E1 (wild type) (antibody, V domains shown)
VH: QVQLVESGGGVVQPGRSLRLSCAASGFTFSSYGMHWVRQAPGKGLEWVAVIWYAESNKYYADSVKGRFTISRDNSKNTLYLQMNSLRAEDTAVYYCARAQEGIAPDAFDIWGQGTMVTVSS
VL: SYELTQPPSVSVSPGQTATITCSGDKLGERYACWYQQRPGQSPVLVIYQDSKRPSGIPERFSGSNSGNTATLTISGTQAMDEADYFCQAWYSSTNVLFGGGTKLTVL
notes: Human antibody
B2: 15E1 A99H (antibody, V domains shown)
VH: B1 VH with A99H
VL: B1 VL
notes: Histidine mutant of 15E1, transiently expressed in 293-6E cells; constant regions as in wild-type 15E1; also called A99H (heavy chain)
B3: 15E1 N57H (antibody, V domains shown)
VH: B1 VH with N57H
VL: B1 VL
notes: Histidine mutant of 15E1, transiently expressed in 293-6E cells; constant regions as in wild-type 15E1; also called N57H (heavy chain)
B4: 15E1 A107H (antibody, V domains shown)
VH: B1 VH with A107H
VL: B1 VL
notes: Histidine mutant of 15E1, transiently expressed in 293-6E cells; constant regions as in wild-type 15E1; also called A107H (heavy chain)
B5: antibody 19B8 (antibody, V domains shown)
VH: QVHLQQWGAGPLKPSETLSLTCAVYNGSFSGYYWSWIRQPPGKGLDWIGDINHSGNTKYNPSLKSRVTISVDTAKNQFSLKLSSVTAADTAVYYCARGDFWSGFDWFDPWGQGTLVTVSS
VL: QSALTQPASVSGSPGQSITISCTGTSSNVGTYKLVSWYQQHPGKAPKLMISEVSKRPSGLSNRFSGSKSGNTASLTISGLQAEDEADYYCSSYAGDSTLVFGGGTKLTVL
notes: Human antibody from Xenomouse IgG2 or IgG4 mice
B6: antibody 22F12 (antibody, V domains shown)
VH: B5 VH with H3Q, N26G, D46E, A74S, Q77H
VL: B5 VL with T31S, K33N, Q40K, S91C, D96S
notes: as for B5
B7: antibody 20E12 (antibody, V domains shown)
VH: B5 VH with H3Q, N26G, D46E, A74S, S83N
VL: B5 VL with T31S, K33N, I50L, N62S, N71D, S91C, D96S
notes: as for B5
B8: antibody 23A11 (antibody, V domains shown)
VH: B5 VH with D46E, S83N
VL: B5 VL with V100I, F101V
notes: as for B5
B9: antibody 22H10 (antibody, V domains shown)
VH: B5 VH with D46E
VL: B5 VL with G43D, M49I, A86V
notes: as for B5
B10: antibody 24E4 (antibody, V domains shown)
VH: QVQLVQSGAEVKEPGASVKVSCKASGYTFTSYGVSWVRQAPGQGLEWMGWISAYNGNTLYAQHLLGRVTMTTDTSTSTAYMELRSLRSDDTAVYYCAREDLGMGDYWGQGTLVTVSS
VL: QSVLTQPPSVSGAPGQRVTISCTGSSSNIGAGYGVYWYQQLPGTAPKLLIYGHNNRPSGVPDRFSGSKSDTSASLAITGLQAEDEADYYCQSYDSNLIGSVFGTGTKVTVL
notes: as for B5
B11: 15E1 A89H (antibody, V domains shown)
VH: B1 VH
VL: B1 VL with A89H
notes: Histidine mutant of 15E1, transiently expressed in 293-6E cells; constant regions as in wild-type 15E1; also called A89H (light chain)
B12: 15E1 A107H L27H (antibody, V domains shown)
VH: B1 VH with A107H
VL: B1 VL with L27H
notes: Double histidine mutant of 15E1 (one change in each chain); constant regions as in wild-type 15E1; also called A107H (heavy chain)/L27H (light chain)
B13: 15E1 L27H (antibody, V domains shown)
VH: B1 VH
VL: B1 VL with L27H
notes: Histidine mutant of 15E1, transiently expressed in 293-6E cells; constant regions as in wild-type 15E1; also called L27H (light chain)
B14: 15E1 A99H A107H (antibody, V domains shown)
VH: B1 VH with A99H, A107H
VL: B1 VL
notes: Double histidine mutant of 15E1; constant regions as in wild-type 15E1; also called A107H (heavy chain)/A99H (heavy chain)
B15: 15E1 W52H (antibody, V domains shown)
VH: B1 VH with W52H
VL: B1 VL
notes: Histidine mutant of 15E1, transiently expressed in 293-6E cells; constant regions as in wild-type 15E1; also called W52H (heavy chain)
B16: 15E1 A107H A89H (antibody, V domains shown)
VH: B1 VH with A107H
VL: B1 VL with A89H
notes: Double histidine mutant of 15E1 (one change in each chain); constant regions as in wild-type 15E1; also called A107H (heavy chain)/A89H (light chain)
B17: 15E1 N57H A107H (antibody, V domains shown)
VH: B1 VH with N57H, A107H
VL: B1 VL
notes: Double histidine mutant of 15E1; constant regions as in wild-type 15E1; also called A107H (heavy chain)/N57H (heavy chain)
B18: antibody 26F11 (antibody, V domains shown)
VH: B1 VH with S31N, A54V, E55G, I103M
VL: B1 VL with T19S, L27M, R38K, V44I, S51T, F86Y, L97V
notes: Human antibody

Molecular target: T1, human hepcidin (mature, 25 amino acids)
Experiment: KinExA solution equilibrium, human hepcidin-coated beads
Description: SA-Sepharose beads were pre-coated with biotinylated human hepcidin (SEQ ID NO: 9) and blocked with BSA according to manufacturer's instructions. Antibodies and hepcidin were diluted in PBS/0.1% BSA/0.05% NaN₃ buffer. Fixed concentrations of antibodies 15E1, 15E1 W52H, 15E1 A99H, 15E1 N521-1, 15E1 A107H and 18B11 were incubated with various concentrations of human hepcidin at room temperature for 8 hours before being run through the human hepcidin-coated beads. The amount of the bead-bound antibody was quantified by fluorescently (Cy5)-labeled goat anti-murine-IgG (H+L) antibody (Jackson Immuno Research, West Grove, Pa.). The binding signal is proportional to the concentration of free antibody at equilibrium. Dissociation equilibrium constant (KD) was obtained from nonlinear regression of the competition curves using a dual-curve one-site homogeneous binding model (KinExATM Pro software).

Row | Binder | Kd [nM]
1 | B1 | 0.037
2 | B2 | > 10
3 | B3 | 3
4 | B4 | 0.031

Molecular target: T1, human hepcidin (mature, 25 amino acids)
Experiment: antibody at 1:250 dilution; KinExA / BIAcore named in the paragraph

Row | Binder | fold reduction in affinity at pH 6 compared to pH 7.4 [fold]
5 | B5 | ~10
6 | B6 | ~10
7 | B7 | ~10
8 | B8 | ~10
9 | B9 | ~10
10 | B10 | ~10

Molecular target: T1, human hepcidin (mature, 25 amino acids)
Experiment: ELISA, mono-biotinylated human hepcidin on Neutravidin plate, pH 5.5
Description: (§1) Differential pH binding of the antibodies listed above in Table 3 was then determined by ELISA. 50 μL of Neutravidin (Pierce) at 8 μg/mL in 1×PBS was coated upon a Nunc Maxisorp 384-well plate, and incubated at 37° C. for 1 hr. After blocking the wells with 0.1% BSA/PBS/0.05% Tween20 for 1 hour at room temperature, plates were washed six times with PBS/0.05% Tween20. 25 μL of mono-biotinylated hepcidin at 50 ng/mL in 0.1% BSA/PBS/0.05% Tween20 was added to the 384-well plate, and incubated at room temperature for 1 hour. The plates were next washed six times with PBS/0.05% Tween20. Starting hepcidin antibody concentrations were normalized to 1 μg/mL for pH 5.5 and 6.0 conditions and to 100 ng/mL for pH 7.4 conditions. The hepcidin antibodies were serially diluted 3-fold in PBS/1% NFDM pH 7.4 and 4-fold in PBS/1% NFDM pH 6.0 and 5.5. The dilutions and titrations were performed in polypropylene 96-well dilution plates, and then were transferred in duplicate to a Neutravidin-coated 384-well plate. The biotinylated hepcidin and antibodies were incubated for 2 hours at room temperature. The plate was next washed six times with PBS/0.05% Tween20. 25 μL it of goat anti-huIgG-horseradish peroxidase at a 1:7000 dilution in 0.1% BSA/PBS/0.05% Tween20 was next added to each well of the assay plate. The plate was finally washed six times in PBS/0.05% Tween20. Enhanced K-Blue 3,3′,5,5′-Tetramethylbenzidine (TMB) Substrate (Neogen) was added and the reaction stopped using 1 M H₃PO₄ after 10 minutes of incubation at room temperature. The absorption was measured at 450 nm on a plate reader. Binding data were analyzed by non-linear regression analysis (sigmoidal dose-response, variable slope) to generate EC₅₀ values using GraphPad Prism® software. […] Double combinations of these mutants were made.

Row | Binder | EC50 [ng/mL]
11 | B1 | 2.3
12 | B11 | 12
13 | B2 | 29.1
14 | B12 | 316
15 | B3 | 3.2
16 | B13 | 8
17 | B4 | 3.7
18 | B14 | 16.1
19 | B15 | 17

Molecular target: T1, human hepcidin (mature, 25 amino acids)
Experiment: ELISA, mono-biotinylated human hepcidin on Neutravidin plate, pH 6.0
Description: as §1

Row | Binder | EC50 [ng/mL]
20 | B1 | 2.3
21 | B11 | 10.6
22 | B2 | 10.7
23 | B12 | 19.3
24 | B3 | 4
25 | B13 | 6.5
26 | B4 | 3.6
27 | B14 | 5.5
28 | B16 | 34.7
29 | B17 | 75.6
30 | B15 | 5.8

Molecular target: T1, human hepcidin (mature, 25 amino acids)
Experiment: ELISA, mono-biotinylated human hepcidin on Neutravidin plate, pH 7.4
Description: as §1

Row | Binder | EC50 [ng/mL]
31 | B1 | 2.3
32 | B11 | 5.4
33 | B2 | 4.1
34 | B12 | 4.3
35 | B3 | 1.8
36 | B13 | 4.5
37 | B4 | 2
38 | B14 | 3
39 | B16 | 6
40 | B17 | 7.3
41 | B15 | 4.5

Molecular target: T1, human hepcidin (mature, 25 amino acids)
Experiment: ELISA, mono-biotinylated human hepcidin on Neutravidin plate, pH 6.0 against pH 7.4
Description: as §1

Row | Binder | fold increase in EC50 as the pH was lowered to 6.0 [fold]
42 | B11 | ≥ 1.5
43 | B2 | ≥ 1.5
44 | B12 | ≥ 5.5
45 | B3 | ≥ 1.5
46 | B13 | ≥ 1.5
47 | B4 | ≥ 1.5
48 | B14 | ≥ 5.5
49 | B16 | ≥ 5.5
50 | B17 | ≥ 5.5
51 | B15 | ≥ 1.5

Molecular target: T1, human hepcidin (mature, 25 amino acids)
Experiment: BIAcore, recombinant human hepcidin immobilised on a CM5 chip, 50 nM antibody bound at pH 7.4, dissociation buffers of pH 7.4, 6 and 5.5 (curves not labelled by pH)
Description: Off-rate analysis of dissociation at different pHs was also performed. A slow off-rate is expected to predict increased binding interaction over a longer period of time, while a faster off-rate is expected to predict decreased binding interaction. For example, a faster off-rate at lower pH is expected to predict greater release of antigen at lower pH. Solution equilibrium binding analysis was performed using BIAcore to study the off-rates of antibodies 1S1, 1S3, 2.7, 18B11, 23F11 and 26F11 with recombinant human hepcidin (SEQ ID NO: 9).
Immobilization of recombinant human hepcidin (rhuHepc) to a BIAcore sensor chip surface was performed according to manufacturer's instructions at a flow rate 10 μL/min of running buffer (DPBS: Dulbecco's Phosphate Buffer Salinel X, no CaCl or MgCl, with 0.005% Biacore surfactant P-20). The carboxylated matrix of the sensor chip was first activated with a 60 μL injection of a mixture containing 0.2 M EDC(N-ethyl-N-(dimethylamine-propyl)carbodiimide in water, from BIAcore) and 0.05M NHS (N-hydroxysuccinimide in water, from Biacore). 55 μL of recombinant human hepcidin (1 μg/ml in 10 mM Na-acetate pH4.0) was injected to immobilize onto the sensor chip. The excess reactive groups of the sensor chip were deactivated with an injection of 60 μL of ethanolamine (1.0M, from Biacore).
After rhuHepc was immobilized on the CM5 chip with low density, 50 nM of antibodies 1S1, 1S3, 2.7, 18B11, 23F11 and 26F11 were injected over and bound the rhuHepc surface at pH 7.4. Dissociation buffers with pH 7.4, pH6 and pH 5.5 were run over the bound surface. The dissociation curves were obtained.

Row | Binder | binding result
52 | B18 | binds
